Entries after “also recorded” stand apart in the source; their conditions may differ. Where no end group is shown, it is not given here.
Experiments:
rat-tail collagen type I [1] = biological target: rat-tail collagen type I (Rattus norvegicus, UniProt P02454+P02466); experiment: Collagen binding/responsiveness of peptides by proton NMR and H-15N HSQC spectroscopy; set-up: rat-tail collagen type I (at 4 mg/ml in 0.02 N acetic acid); purchased BD Bioscience; host or cells: rat tail (tissue-derived); conditions: for response to / binding of collagen (NMR spectral perturbations): peptide free in solution vs in the presence of collagen; for NMR perturbations after collagen gelation (polymerization); reversibility of collagen binding: before vs after collagen gelation
Experimental: Rat collagen hydrogels were prepared using rat-tail collagen type I (at 4 mg/ml in 0.02 N acetic acid) from BD Bioscience. A volume of 200 μL of the concentrated collagen solution was mixed with an equal volume of a buffer solution that was 400 mM in Tris-HCl and 400 mM in NaCl with a pH of 7.6 and with 50 μL of deuterated water (D2O). The sample mixture was transferred to an NMR tube followed by gentle mixing under agitation using a Thermolyne™ Max Mix-II apparatus. The NMR tube containing the collagen solution was placed within the RF probe housed in a 500 MHz super-conducting magnet (Bruker Avance-500 NMR spectrometer). The probe and sample bulk temperature was kept at 277 K for 3 hours and then elevated to 310 K at a rate of 1 degree/10 min to enable fibril alignment during a slow process of collagen gelation under the influence of the magnetic field (Ma 2008). The degree of fibril alignment of the collagen hydrogels was determined by use of deuterium NMR spectroscopy of the added D2O as described (Ma 2008). […]
Randomly-deposited collagen (hydrogel) matrix was prepared following the same procedure as above for partially aligned hydrogels, except that the RF probe and the NMR tube (or test tubes) containing the collagen solution were placed outside the magnetic field. Peptides containing collagen-binding hairpins were introduced into the hydrogels in two ways, the first with the collagen stock solution diluted (50:50 in volume ratio) by the buffer of 400 mM in Tris-HCl and 400 mM in NaCl at pH 7.6 containing the peptides of interest (i.e. for FIGS. 1A & 1D), which gelates in the presence of the added peptide. Alternatively, peptides in an appropriate buffer were introduced to the top of the hydrogel matrix (i.e. for FIGS. 1B & 1C) preformed in the NMR tube (or test tube) following the procedures described above. The behavior of the peptides in the hydrogels was followed by use of NMR H-^15N HSQC spectra for ^15N-labelled peptides (FIG. 1) and/or by use of one-dimensional proton NMR spectroscopy (FIG. 2).
Deuterium NMR spectroscopy studies of collagen responsiveness (and/or binding) for each peptide were carried out using a volume of (400-X) μL of a peptide dissolved in pure water mixed with 50 μL of a 10×PBS (phosphate-buffered saline) supplemented by sodium phosphate to a final concentration of 50 mM, with 50 μL of deuterated water (D2O) to form the reference sample (where X=0), or the peptide-collagen complex with X μL of rat-tail collagen type I (at 3.6 to 4 mg/ml in 0.02 N acetic acid from BD Bioscience) adjusted to achieve the desired final concentration of collagen. The pH value of the reference peptide samples was adjusted to match the pH of the final peptide-collagen complex in order to facilitate NMR spectral comparison. The peptide-collagen solutions were also subjected to gelation under magnetic field guidance followed by the measurement of fibril alignment (Ma 2008) as a semi-quantitative indication of peptide-collagen binding. Deuterium coupling constants measuring the degree of collagen fibril alignment were reduced by more than 1.0 Hz for MH2-wZIP4, by less than 0.5 Hz for MH2-wZIP6 and MH2-wZIP5, which parallel those observed for trpzip4, trpzip6, trpzip5 and the gb1 peptide (see Example 4). As a comparison, a solution of rat collagen at a concentration of 1.8 mg/ml in 200 mM Tris-Cl/200 mM NaCl at pH 7.6 formed a partially-aligned hydrogel with a deuterium coupling constant (Ma, 2008) of 2.5 Hz, while a solution of rat collagen at a concentration of 3 mg/ml in PBS (137 mM NaCl/2.68 mM KCl/10.1 mM Na2HPO4/1.76 mM KH2PO4) supplemented with Na2HPO4 to achieve a final concentration of 50 mM at pH 7.4 formed a partially-aligned hydrogel with a deuterium coupling constant of 4.8 Hz. A solution of human collagen at a concentration of 2.23 mg/ml in PBS supplemented with Na2HPO4 with a final concentration of 50 mM at pH 7.4 formed a partially-aligned hydrogel with a deuterium coupling constant of 1.3 Hz.

[2] = tested on: abdominal vena cava injured by FeCl3; conditions: I.V. 30 minutes after FeCl3; about 1/4 of the highest FL4247 dose
Description: The application of ferric chloride on venous and arterial vessels was therefore the method used to produce the inflamed vasculature in the animal model. The carotid artery (arterial model) and the abdominal vena cava (venous model) were the chosen vessels for the imaging experiments with injured blood vessels undergong thrombosis.
The FeCl3 rat venous model of thrombosis was generated as described (Wang 2005) with some modifications. Briefly, rats were anesthetized with a 2.5% isoflurane/oxygen mixture and placed on a heat source (35-37° C.). The vena cava was then exposed via a midline incision and the region between the renal and iliolumbar veins was isolated. One minute after drug administration, a piece of filter paper (Gel Blot Paper, GB003, Whatman, Piscataway, N.J., USA; 7 mm diameter) saturated with 10% FeCl3 (EMD Chemicals Inc., Gibbstown, N.J., USA) was placed on the exposed surface of the vena cava and incubated for 3.5 minutes. During the application of FeCl3, the abdominal region was covered with aluminum foil. At the end of the incubation period, the filter paper was removed and the exposed viscera covered with a saline-soaked gauze.
In these imaging experiments, there were also a 30-minute waiting time after introduction of FeCl3 to the exposed vena cava to ensure the development of substantial vascular injury and the deposition of a thrombus.

rat-tail collagen type I [3] = biological target: T1, rat-tail collagen type I (rat, UniProt P02454 152-1207; P02466 86-1125); experiment: proton NMR, free against with collagen
T1 construct: also called type-I collagen; unpolymerized collagen
T1 sequence (P02454 152-1207 limits assumed, chain 1 of 2): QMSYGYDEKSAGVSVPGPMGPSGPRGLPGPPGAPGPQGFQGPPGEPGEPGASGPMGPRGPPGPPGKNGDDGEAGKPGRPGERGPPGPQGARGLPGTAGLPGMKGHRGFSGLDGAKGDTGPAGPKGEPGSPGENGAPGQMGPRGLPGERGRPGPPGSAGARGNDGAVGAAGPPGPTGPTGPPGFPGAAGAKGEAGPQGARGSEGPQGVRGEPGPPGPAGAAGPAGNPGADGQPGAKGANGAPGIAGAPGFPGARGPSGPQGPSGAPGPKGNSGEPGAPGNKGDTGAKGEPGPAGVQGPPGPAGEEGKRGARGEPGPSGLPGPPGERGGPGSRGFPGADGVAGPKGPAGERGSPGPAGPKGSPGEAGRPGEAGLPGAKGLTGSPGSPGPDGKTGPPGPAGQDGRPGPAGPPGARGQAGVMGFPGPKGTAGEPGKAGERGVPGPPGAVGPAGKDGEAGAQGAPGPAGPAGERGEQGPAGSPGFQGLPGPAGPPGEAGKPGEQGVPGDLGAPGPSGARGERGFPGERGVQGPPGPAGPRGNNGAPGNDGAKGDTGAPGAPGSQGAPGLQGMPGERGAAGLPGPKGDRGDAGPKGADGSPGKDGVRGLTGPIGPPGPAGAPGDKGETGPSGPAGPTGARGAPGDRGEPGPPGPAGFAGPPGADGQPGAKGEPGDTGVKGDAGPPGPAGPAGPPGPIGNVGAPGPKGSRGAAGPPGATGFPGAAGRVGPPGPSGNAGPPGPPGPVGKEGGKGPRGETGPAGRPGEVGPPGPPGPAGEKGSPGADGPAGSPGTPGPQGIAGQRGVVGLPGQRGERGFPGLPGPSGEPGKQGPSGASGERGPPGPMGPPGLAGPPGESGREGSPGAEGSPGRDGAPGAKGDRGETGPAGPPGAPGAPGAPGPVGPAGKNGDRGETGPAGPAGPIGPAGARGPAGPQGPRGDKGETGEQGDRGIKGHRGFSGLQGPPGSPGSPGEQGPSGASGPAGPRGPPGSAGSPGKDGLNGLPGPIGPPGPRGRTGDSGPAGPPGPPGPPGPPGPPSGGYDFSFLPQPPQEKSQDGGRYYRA
T1 sequence (P02466 86-1125 limits assumed, chain 2 of 2): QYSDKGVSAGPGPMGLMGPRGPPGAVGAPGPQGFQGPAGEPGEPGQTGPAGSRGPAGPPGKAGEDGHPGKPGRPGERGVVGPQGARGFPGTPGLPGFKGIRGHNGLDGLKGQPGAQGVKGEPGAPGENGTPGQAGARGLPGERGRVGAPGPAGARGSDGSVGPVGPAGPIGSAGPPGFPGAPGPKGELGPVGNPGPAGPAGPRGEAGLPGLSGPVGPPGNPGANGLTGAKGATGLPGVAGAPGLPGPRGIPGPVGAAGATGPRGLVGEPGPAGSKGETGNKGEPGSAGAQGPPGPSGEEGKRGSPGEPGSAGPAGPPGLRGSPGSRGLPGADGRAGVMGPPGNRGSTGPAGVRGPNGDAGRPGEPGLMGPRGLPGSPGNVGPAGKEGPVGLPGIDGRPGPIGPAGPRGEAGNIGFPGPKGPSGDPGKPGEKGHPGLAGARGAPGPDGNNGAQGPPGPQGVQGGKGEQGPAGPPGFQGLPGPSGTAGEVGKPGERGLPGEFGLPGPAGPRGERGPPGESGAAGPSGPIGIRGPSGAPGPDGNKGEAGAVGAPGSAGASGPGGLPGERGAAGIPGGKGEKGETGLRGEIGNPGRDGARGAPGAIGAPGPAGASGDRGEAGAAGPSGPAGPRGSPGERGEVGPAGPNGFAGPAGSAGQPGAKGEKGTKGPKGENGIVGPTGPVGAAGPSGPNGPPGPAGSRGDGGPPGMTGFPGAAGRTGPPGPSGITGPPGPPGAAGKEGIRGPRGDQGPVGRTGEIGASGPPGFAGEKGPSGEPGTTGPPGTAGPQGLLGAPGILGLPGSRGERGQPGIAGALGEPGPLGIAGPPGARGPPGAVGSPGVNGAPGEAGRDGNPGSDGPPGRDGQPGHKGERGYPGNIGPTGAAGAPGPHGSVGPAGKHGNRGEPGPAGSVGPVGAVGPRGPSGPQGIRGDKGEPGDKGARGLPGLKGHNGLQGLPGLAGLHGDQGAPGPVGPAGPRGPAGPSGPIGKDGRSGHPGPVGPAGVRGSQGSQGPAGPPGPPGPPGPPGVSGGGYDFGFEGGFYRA

Chain of rat-tail collagen type I (Rattus norvegicus, UniProt P02454+P02466) (P02454 152-1207 limits assumed): as the sequence (P02454 152-1207 limits assumed, chain 1 of 2) above
Chain of rat-tail collagen type I (Rattus norvegicus, UniProt P02454+P02466) (P02466 86-1125 limits assumed): as the sequence (P02466 86-1125 limits assumed, chain 2 of 2) above

Molecule	response to / binding of collagen (NMR spectral perturbations) (rat-tail collagen type I [1])	other results
SWTYEGNKYTWK (SWTYEGNKYTWK-NH2) [Y4Y9-trpzip1, reference compound]	retain the collagne-binding capacity	
SWTWENGKWTWK (SWTWENGKWTWK-NH2) [trpzip2, reference compound]	collagen-binding linear hairpin (CBLH) peptide	
KTWNPATGKWTE (HP7 - does not bind collagen) [reference compound]	does not respond to the addition of collagen	
GEWTWDDA (MH2-wZIP4-F2 - does not bind collagen)	lack of binding with collagen	
MH2-wZIP5: bivalent thrombin inhibitor containing the trpzip5 sequence (WO/2012/142696) (GEWTYDDATKTFTWTE; also: bivalent thrombin inhibitor, other parts, small tags and cut ends not in chain)	varying degrees of entrapment	NMR perturbations after collagen gelation (polymerization); reversibility of collagen binding (rat-tail collagen type I [1]): reduced degree of proton NMR signal perturbations; also recorded: more pronounced loss of resonance perturbations as compared to MH2-wZIP6
KKWTWNPATGKWTWQE (KKWTWNPATGKWTWQE-NH2) [HP5W4, reference compound]	CBLH peptides	
MH2-wZIP6: bivalent thrombin inhibitor containing the trpzip6 sequence (WO/2012/142696) (GEWTWDDATKTWTVTE; also: bivalent thrombin inhibitor, other parts, small tags and cut ends not in chain)	varying degrees of entrapment	NMR perturbations after collagen gelation (polymerization); reversibility of collagen binding (rat-tail collagen type I [1]): reduced degree of proton NMR signal perturbations
STWTWNGTNWTRNDGGC-Fluor750 (not fully specified (C-terminus); printed as STWTWNGTNWTRNDGGC-Fluor750; also: HiLyte Fluor750 conjugate) [FL4447]		fluorescence at the injured vena cava (whole-body and post-mortem imaging) [2]: somewhat reduced level of local fluorescence as compared to FL4247/FL4312
GEWTWDDATKTWTWTEGDFEEIPEEYL (MH2-wZIP4-F3 - molecule of Formula (I))	responds fully to collagen	
TWTWNGTNWTRN (CBLH peptide - v4-gp160)	responsive to the presence of collagen	
GEWVWDDATKTWHWTE (GEWVWDDATKTWHWTE-NH2) [trpzip8, reference compound]	CBLH peptides	
IRFTDGGSWTWEGNKWTWKGGDFEEIPEEYLQ (MH2-wZIP1GG - molecule of Formula (I))	responds similarly to collagen binding	
SWTWEGNKWTWK (SWTWEGNKWTWK-NH2) [trpzip1, reference compound]	respond to collagen	
acetyl-STWTWNGTNWTRNDGGK (Ac-STWTWNGTNWTRNDGGK)	bind to type-I collagen	NMR perturbations after collagen gelation (polymerization); reversibility of collagen binding (rat-tail collagen type I [1]): certain degree of reversibility
TWTWNGSAWTWN (CBLH peptide - v4-gp120) [reference compound]	respond to collagen	
SWTVENGKVTWK (W2W11-trpzip2 - does not bind collagen) [reference compound]	loses the collagen-binding capacity	

Molecule	response to / binding of collagen (NMR spectral perturbations) (rat-tail collagen type I [1])	other results
GEWTYNPATGKWTWTE (GEWTYNPATGKWTWTE-NH2) [CBLH1]	almost identical collagen-binding characteristics	NMR perturbations after collagen gelation (polymerization); reversibility of collagen binding (rat-tail collagen type I [1]): certain degree of reversibility
acetyl-STWTWNGSAWTWNEGGK (Ac-STWTWNGSAWTWNEGGK)	bind to type-I collagen	NMR perturbations after collagen gelation (polymerization); reversibility of collagen binding (rat-tail collagen type I [1]): essentially irreversible
SWTYEGNKWTWK (SWTYEGNKWTWK-NH2) [Y4-trpzip1, reference compound]	retain the collagne-binding capacity	
KEWTWNPATGKWTRTE (KEWTWNPATGKWTRTE-NH2) [CBLH4]	almost identical collagen-binding characteristics	NMR perturbations after collagen gelation (polymerization); reversibility of collagen binding (rat-tail collagen type I [1]): certain degree of reversibility
GEWTWNPATGKWTRTE (GEWTWNPATGKWTRTE-NH2) [CBLH2]	almost identical collagen-binding characteristics	NMR perturbations after collagen gelation (polymerization); reversibility of collagen binding (rat-tail collagen type I [1]): certain degree of reversibility
SWTYENGKYTWK (SWTYENGKYTWK-NH2) [WYYW-trpzip2, reference compound]	retains a significant capacity for binding collagen	
TWRWNGSTAWTWS (CBLH peptide - pp-D7EUT8)	some proton NMR perturbations are observed	
IRFTDGEWTWDDA (MH2-wZIP4-F1 - does not bind collagen)	does not respond to collagen binding	
KEWTYNPATGKWTWTE [CBLH3]	almost identical collagen-binding characteristics	NMR perturbations after collagen gelation (polymerization); reversibility of collagen binding (rat-tail collagen type I [1]): certain degree of reversibility
IRFTDGEWTWDDATKTWTWTE-GGS-VHpro10 (protein, WZ4-GGS-VHpro10 - molecule of Formula (I), trpzip4-VH conjugate, VHpro10 is a prothrombin-specific antibody VHH fragment) IRFTDGEWTWDDATKTWTWTEGGSDVQLQASGGGLVQAGGSLRLTCAASGRTFDRYGWFRQAPGKEREFVASIGTRLHYADSVKGRFTISRDNAKSTAFLEMNSLKPEDTAVYYCAAAESTRNWYYKMSNDYDYWGQGTQVTVSSLEHHHHHH		NMR perturbations / release after collagen degradation by a collagenase (rat-tail collagen type I [1]; collagenase treatment): gradually came into view while the collagen gel dissembles in the presence of a collagenase
IRFTDGEWTWDDA (also called P4233) [MH2-wZIP4-F1]		binding result (rat-tail collagen type I [3]): no binding
GEWTYDDATKTFTVTE-NH2 (also called gb1 peptide; gb1-NH2) [gb1]		binding result (rat-tail collagen type I [3]): no binding
SWTVENGKVTWK [W2W11-trpzip2]		binding result (rat-tail collagen type I [3]): no binding
GEWTWDDA (also called P4236) [MH2-wZIP4-F2]		binding result (rat-tail collagen type I [3]): no binding
KTWNPATGKWTE [HP7]		binding result (rat-tail collagen type I [3]): no binding

Reference: patent publication US20160168210A1, “DERIVATIVES OF COLLAGEN-BINDING HAIRPIN PEPTIDES” (NATIONAL RESEARCH COUNCIL OF CANADA, priority 2012, published 2016)
